This note sets out measurements from article PMC6813240, “Functional Differentiation of Duplicated Flavonoid 3-O-Glycosyltransferases in the Flavonol and Anthocyanin Biosynthesis of Freesia hybrida” (Frontiers in Plant Science, 2019).

Substrate in data set [1]: O=c1c(O)c(-c2ccc(O)cc2)oc2cc(O)cc(O)c12
Put plainly: purified protein. As to conditions: 10 mM UDP-glucose, 50 mM HEPES pH 8.0, 30°C, 2 min.

Substrate in data set [2]: O=c1c(O)c(-c2ccc(O)c(O)c2)oc2cc(O)cc(O)c12
The data set can be described thus: HPLC glucosyltransferase assay. The class given is biochemical, Freesia hybrid cultivar. The settings on record: 10 mM UDP-glucose, 50 mM HEPES pH 8.0, 30°C, 2 min, acceptor 10-60 µM.

Where [3] appears, read: acceptor 10-60 µM (Km lies far below this range).

B1: Fh3GT1 (Freesia hybrid cultivar) (protein)
chain: MGSADRSHVALLAFPFGTHAAPLLSLGLNLASSAPHGTTFSFLSNRRPVSLPPNSAIKFYEIADGSDPEHEGHVHPEEEVRVFMEETPGNYKKALEAAVDRCGGQRVTCIVADAFLWFVGDIAAEFGVHWVPLWTGGPCSFLAHLYTDMLRNKIGTGKEADPDEDLQFLPGLSGFRVRDLPDDIVTGDLTGAFASLLHRMSIEIPRSAAAIAINTFEGLHPDIDADLASKFKKSLPIGPLNLLNPTLNQPDRFSCLAWLDKFEPHSVAYVSFGTLAALTEAELVELASGLEQSGVPFLWSLKEPGQLPAGFLDRTKDRGLVVPWVPQAEALKHVAVGASLSHCGWNSVMESVTSGVPMLCRPFLGDQTMNARAVSHVWKVGVTFENGTMTRANVAEAMKKVVVGEEGRKMRERAAAIREMAAGSVRPGGSSVQNFKALLDIVIAR
notes: recombinant from E. coli BL21 (DE3), pET32a, N-terminal 6x His tag, Ni Sepharose purified
Regarding B1, the Km (in general, the concentration of substrate that gives half-maximal velocity) in data set [1] (acceptor 10-60 µM) was 45.38 ± 3.90 µM. In addition, in data set [2], the Michaelis-Menten constant (Km) was 96.38 ± 5.03 µM; the kcat – broadly, the number of substrate molecules converted per active site and unit of time at saturation – worked out at 4.51 ± 0.039 s⁻¹; the kcat/Km (usually the turnover number divided by the Michaelis constant) came out at 46900 M⁻¹ s⁻¹.

B2: Fh3GT2 (Freesia hybrid cultivar) (protein)
chain: MGSSQPPTRRRHVAVIAFPFSSHPAALFTLARAMAAAAPGTTFSFLSFPGSVDSLSKIPCRPENLRLCHVADPTPPGAIPPEQRIGMFLAAAPAYLRAGIKAAEALDGGGVTCLVSDSLLWMTADVAEEKGVPWVAVWTGGTSALVVHVYTDRLRKFYGVVHGDAIHPRADELLDVNVVPGFSEHRVRDLPEGILWKVDSPFASLVDTMVSKFPRAVAVVANTIPGLDPGLDAAFASKFKNYLPIGPFTILSPLPSPQHDNECVAWLDRQAPASVAYVSFGTLAALPPSELTELANGLEASGVPFLWSMKNKEALPAGFLDRTRGKGLVVDWAPQASVLAHNAVGGFVTHCGWSSVMESVAAGVPMICRSVFGDQTMTAKMVCNAWKIGFGFSGGAITREEVVRGLRMVLRGEEGGREIRERSSELKSLAWREVKVEGRTVKNLNSLIEIING
notes: as for B1
For B2, in data set [1] (setting [3]), the Michaelis-Menten constant (Km) was determined as 0.13 ± 0.01 µM, the kcat is 0.73 s⁻¹ and the kcat/Km came to 5.46e+06 M⁻¹ s⁻¹. In data set [2], the Km is 16.62 ± 0.03 µM, the turnover number (kcat) amounted to 1.86 ± 0.0023 s⁻¹ and the specificity constant (kcat/Km) stood at 112000 M⁻¹ s⁻¹.
